The target of the test is GLP-1 receptor. The experiment in a line: cell-based or functional assay.

The substance “GLP-1(7-37) parent (from UniProt P01275 98-128) (peptide)” returned an EC50, Receptor Functional assay (intracellular cAMP in CHO/GLP-1R cells) of 0.0503 nM.

Values taken from US20110269680A1, “GLP-1 ANALOGS AND USES THEREOF” (PANACEA BIOTEC LIMITED, priority 2008, published 2011).
